Reference: patent publication US20030157553A1, “Methods of assaying for G protein-coupled receptor ligands and modulators” (priority 2000, published 2003)

Columns and labels:
[1] = test system: β2AR; assay: Direct binding assay of in vitro translated tritiated arrestins to purified β2AR reconstituted into phospholipid vesicles; conditions: unphosphorylated β2AR, activated by 0.1 mM agonist isoproterenol; FIG. 1A
Excerpt: (§1) Mutagenesis and Biochemical Characterization of β-Arrestins—Mutations Arg169→Glu (CGG→GAG), Gln394→Ter (CAA→TAA), and Asp383→Ter (GAT→TAG) were introduced by polymerase chain reaction in β-arrestin construct pBARR (Gurevich et al. (1995) J. Biol. Chem. 270:720-731), that was used for in vitro transcription and translation, as described (Gurevich et al. (1995), supra). NcoI/HindIII 1404-base pair open reading frame was then subdloned into appropriately digested Escherichia coliexpression vector pTrcHisB (Invitrogen). […]
Direct Binding Assay—In vitro translated tritiated arrestins (50 fmol) were incubated in 50 mM Tris-HCl, pH 7.5, 0.5 mM MgCl2, 1.5 mM dithiothreitol, 50 mM potassium acetate with 7.5 pmol of the various functional forms of rhodopsin or with P-β2AR or β2AR (100 fmol/assay) in a final volume of 50 μl for 5 min at 37° C. in room light (rhodopsin) or for 60 min at 30° C. in the presence of 0.1 mM -agonist isoproterenol. […] Nonspecific binding determined in the presence of 0.3 μg of liposomes was subtracted.

[2] = test system: β2AR; assay: Agonist affinity shift assay ([125I] iodopindolol), formation of high agonist affinity complex (HAC); type: binding; conditions: 1 μM arrestin, FIG. 2A
Excerpt: as §1
Agonist Affinity ShiftAssay—P-β2AR or β2AR (10-15 fmol/assay) was incubated in 0.25 ml of 10 mM Tris-HCl, pH 7.4, 100 mM NaCl (buffer A) containing 0.1 mg/ml bovine serum albumin in the presence of 65-75 fmol of [^125I] iodopindolol (NEN Life Science Products) and the indicated concentrations of arrestins and agonists for 60 min at 22° C. […] Receptor-containing liposomes with bound radioligand were eluted with buffer A (between 0.6 and 1.5 ml), and radioactivity was quantitated in a liquid scintillation counter. Nonspecific binding was determined in the presence of 10 μM alprenolol. […]

B1: β-arrestin-(Arg169→Glu): bovine β-arrestin mutant Arg169→Glu that reverses the charge of the putative phosphorylation-sensitive trigger (protein)
chain: MGDKGTRVFKKASPNGKLTVYLGKRDFVDHIDLVEPVDGVVLVDPEYLKERRVYVTLTCAFRYGREDLDVLGLTFRKDLFVANVQSFPPAPEDKKPLTRLQERLIKKLGEHAYPFTFEIPPNLPCSVTLQPGPEDTGKACGVDYEVKAFCAENLEEKIHKRNSVRLVIEKVQYAPERPGPQPTAETTRQFLMSDKPLHLEASLDKEIYYHGEPISVNVHVTNNTNKTVKKIKISVRQYADICLFNTAQYKCPVAMEEADDTVAPSSTFCKVYTLTPFLANNREKRGLALDGKLKHEDTNLASSTLLREGANREILGIIVSYKVKVKLVVSRGGLLGDLASSDVAVELPFTLMHPKPKEEPPHREVPEHETPVDTNLIELDTNDDDIVFEDFARQRLKGMKDDKEEEEDGTGSPRLNDR
- binding to activated unphosphorylated receptor [1]: significantly higher binding
- percentage of HAC formed by unphosphorylated β2AR [2]: 22±4%
